Data from patent publication US20150344570A1 (published 2015).

T1: FcγRIIb extracellular domain with C-terminal His tag (human, UniProt P31994 43-217)
T1 construct: extracellular domain; Expressed in FreeStyle293 cells; analyte in the SPR assay; also called FcgRIIb; 2b
T1 sequence (looked up): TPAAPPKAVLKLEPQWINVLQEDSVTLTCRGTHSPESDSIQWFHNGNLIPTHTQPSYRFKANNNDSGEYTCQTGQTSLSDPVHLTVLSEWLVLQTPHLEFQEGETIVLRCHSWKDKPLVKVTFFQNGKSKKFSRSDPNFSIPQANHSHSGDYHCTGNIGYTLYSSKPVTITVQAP

T2: FcγRIIb (human, UniProt P31994 43-217)
T2 construct: extracellular domain; also called FcgRIIb; 2b
T2 sequence (looked up): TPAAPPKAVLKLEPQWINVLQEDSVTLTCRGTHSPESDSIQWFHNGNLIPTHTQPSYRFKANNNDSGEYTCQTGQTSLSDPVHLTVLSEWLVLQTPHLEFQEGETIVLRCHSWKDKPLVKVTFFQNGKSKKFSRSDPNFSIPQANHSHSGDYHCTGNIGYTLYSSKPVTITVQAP


Columns and labels:
[1] = target: T1, FcγRIIb extracellular domain with …; assay: SPR (Biacore), relative binding, HeCon Ab = 100
[2] = target: T3, FcγRIa extracellular domain with C-terminal His tag (human, UniProt P12314 16-292); assay: SPR (Biacore), relative binding, HeCon Ab = 100
T3 construct: extracellular domain; Expressed in FreeStyle293 cells; analyte in the SPR assay; also called FcgRI; 1a
T3 sequence (P12314 16-292): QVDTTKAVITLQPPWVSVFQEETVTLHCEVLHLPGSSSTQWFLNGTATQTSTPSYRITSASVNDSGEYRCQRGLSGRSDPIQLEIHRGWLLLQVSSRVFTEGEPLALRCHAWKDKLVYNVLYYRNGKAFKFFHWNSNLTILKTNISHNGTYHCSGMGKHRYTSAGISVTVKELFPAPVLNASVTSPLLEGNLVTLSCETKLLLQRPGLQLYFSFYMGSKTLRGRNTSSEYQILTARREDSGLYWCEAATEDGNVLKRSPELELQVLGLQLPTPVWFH

FcγRIIb = target: T2, FcγRIIb; assay: SPR (Biacore), relative binding
FcγRIa = target: T4, FcγRIa (human, UniProt P12314 16-292); assay: SPR (Biacore); He Ab vs HeCon Ab GpH7-A5/GpH7-B3/GpL16-k0
T4 construct: extracellular domain; Soluble extracellular domain expressed in FreeStyle293 cells, used as analyte in Biacore; also called FcgRI; 1a; not shown: His tag attached to the C terminus
T4 sequence (P12314 16-292): as above
Summary of the method: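 On Biacore T100 at 25° C in HBS-EP+, FcγR extracellular domains flowed over test antibodies held by immobilized antigen peptide. Glycine-HCl 10 mM, pH 1.5 stripped captured antibody between cycles; values reported as binding relative to the control antibody.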

Binder	He/Con_2b [1]	He/Con_1a [2]	He/Con_2b (FcγRIIb)	He/Con_1a (FcγRIa)
GpH7-A5/GpH7-B3 variant E269_05P/GpL16-k0 (He Ab) (antibody, human IgG1, kappa, He Ab: mutation in one H chain only) heavy 1: not shown heavy 2: not shown light: DIVMTQSPLSLPVTPGEPASISCQASESLVHSNRNTYLHWYLQKPGQSPQLLIYKVSNRFSGVPDRFSGSGSGTDFTLKISRVEAEDVGVYYCSQNTHVPPTFGQGTKVEIERTVAAPSVFIFPPSDEQLKSGTASVVCLLNNFYPREAKVQWKVDNALQSGNSQESVTEQDSKDSTYSLSSTLTLSKADYEKHKVYACEVTHQGLSSPVTKSFNRGEC	52.6 % of HeCon Ab (=100)	102 % of HeCon Ab (=100)	–	–
GpH7-A5/GpH7-B3 variant E269_02A/GpL16-k0 (He Ab) (antibody, human IgG1, kappa, He Ab: mutation in one H chain only) heavy 1: not shown heavy 2: not shown light: DIVMTQSPLSLPVTPGEPASISCQASESLVHSNRNTYLHWYLQKPGQSPQLLIYKVSNRFSGVPDRFSGSGSGTDFTLKISRVEAEDVGVYYCSQNTHVPPTFGQGTKVEIERTVAAPSVFIFPPSDEQLKSGTASVVCLLNNFYPREAKVQWKVDNALQSGNSQESVTEQDSKDSTYSLSSTLTLSKADYEKHKVYACEVTHQGLSSPVTKSFNRGEC	49.9 % of HeCon Ab (=100)	104 % of HeCon Ab (=100)	–	–
GpH7-A5/GpH7-B3 variant E269_03V/GpL16-k0 (He Ab) (antibody, human IgG1, kappa, He Ab: mutation in one H chain only) heavy 1: not shown heavy 2: not shown light: DIVMTQSPLSLPVTPGEPASISCQASESLVHSNRNTYLHWYLQKPGQSPQLLIYKVSNRFSGVPDRFSGSGSGTDFTLKISRVEAEDVGVYYCSQNTHVPPTFGQGTKVEIERTVAAPSVFIFPPSDEQLKSGTASVVCLLNNFYPREAKVQWKVDNALQSGNSQESVTEQDSKDSTYSLSSTLTLSKADYEKHKVYACEVTHQGLSSPVTKSFNRGEC	45.1 % of HeCon Ab (=100)	103 % of HeCon Ab (=100)	–	–
GpH7-A5/GpH7-B3 variant D265_19Q/GpL16-k0 (antibody, human IgG1, kappa, mutation in the GpH7-B3 chain only; also called He Ab) heavy 1: not shown heavy 2: not shown light: DIVMTQSPLSLPVTPGEPASISCQASESLVHSNRNTYLHWYLQKPGQSPQLLIYKVSNRFSGVPDRFSGSGSGTDFTLKISRVEAEDVGVYYCSQNTHVPPTFGQGTKVEIERTVAAPSVFIFPPSDEQLKSGTASVVCLLNNFYPREAKVQWKVDNALQSGNSQESVTEQDSKDSTYSLSSTLTLSKADYEKHKVYACEVTHQGLSSPVTKSFNRGEC	–	–	33.4 % of GpH7-A5/GpH7-B3/GpL16-k0	–
GpH7-A5/GpH7-B3 variant E269_08L/GpL16-k0 (He Ab) (antibody, human IgG1, kappa, He Ab: mutation in one H chain only) heavy 1: not shown heavy 2: not shown light: DIVMTQSPLSLPVTPGEPASISCQASESLVHSNRNTYLHWYLQKPGQSPQLLIYKVSNRFSGVPDRFSGSGSGTDFTLKISRVEAEDVGVYYCSQNTHVPPTFGQGTKVEIERTVAAPSVFIFPPSDEQLKSGTASVVCLLNNFYPREAKVQWKVDNALQSGNSQESVTEQDSKDSTYSLSSTLTLSKADYEKHKVYACEVTHQGLSSPVTKSFNRGEC	42.9 % of HeCon Ab (=100)	104 % of HeCon Ab (=100)	–	–
GpH7-A5/GpH7-B3 variant V266_19Q/GpL16-k0 (antibody, human IgG1, kappa, also called He Ab V266_19Q) heavy 1: not shown heavy 2: not shown light: DIVMTQSPLSLPVTPGEPASISCQASESLVHSNRNTYLHWYLQKPGQSPQLLIYKVSNRFSGVPDRFSGSGSGTDFTLKISRVEAEDVGVYYCSQNTHVPPTFGQGTKVEIERTVAAPSVFIFPPSDEQLKSGTASVVCLLNNFYPREAKVQWKVDNALQSGNSQESVTEQDSKDSTYSLSSTLTLSKADYEKHKVYACEVTHQGLSSPVTKSFNRGEC	–	–	–	100 relative binding, control = 100
GpH7-A5/GpH7-B3 variant Y300_12R/GpL16-k0 (antibody, human IgG1, kappa, also called He Ab Y300_12R) heavy 1: not shown heavy 2: not shown light: DIVMTQSPLSLPVTPGEPASISCQASESLVHSNRNTYLHWYLQKPGQSPQLLIYKVSNRFSGVPDRFSGSGSGTDFTLKISRVEAEDVGVYYCSQNTHVPPTFGQGTKVEIERTVAAPSVFIFPPSDEQLKSGTASVVCLLNNFYPREAKVQWKVDNALQSGNSQESVTEQDSKDSTYSLSSTLTLSKADYEKHKVYACEVTHQGLSSPVTKSFNRGEC	–	–	–	105 relative binding, control = 100
GpH7-A5/GpH7-B3 variant T335_15Y/GpL16-k0 (antibody, human IgG1, kappa, also called He Ab T335_15Y) heavy 1: not shown heavy 2: not shown light: DIVMTQSPLSLPVTPGEPASISCQASESLVHSNRNTYLHWYLQKPGQSPQLLIYKVSNRFSGVPDRFSGSGSGTDFTLKISRVEAEDVGVYYCSQNTHVPPTFGQGTKVEIERTVAAPSVFIFPPSDEQLKSGTASVVCLLNNFYPREAKVQWKVDNALQSGNSQESVTEQDSKDSTYSLSSTLTLSKADYEKHKVYACEVTHQGLSSPVTKSFNRGEC	–	–	–	107 relative binding, control = 100
GpH7-A5/GpH7-B3 variant E269_13S/GpL16-k0 (He Ab) (antibody, human IgG1, kappa, He Ab: mutation in one H chain only) heavy 1: not shown heavy 2: not shown light: DIVMTQSPLSLPVTPGEPASISCQASESLVHSNRNTYLHWYLQKPGQSPQLLIYKVSNRFSGVPDRFSGSGSGTDFTLKISRVEAEDVGVYYCSQNTHVPPTFGQGTKVEIERTVAAPSVFIFPPSDEQLKSGTASVVCLLNNFYPREAKVQWKVDNALQSGNSQESVTEQDSKDSTYSLSSTLTLSKADYEKHKVYACEVTHQGLSSPVTKSFNRGEC	47.8 % of HeCon Ab (=100)	103 % of HeCon Ab (=100)	–	–
GpH7-A5/GpH7-B3 variant E269_07I/GpL16-k0 (He Ab) (antibody, human IgG1, kappa, He Ab: mutation in one H chain only) heavy 1: not shown heavy 2: not shown light: DIVMTQSPLSLPVTPGEPASISCQASESLVHSNRNTYLHWYLQKPGQSPQLLIYKVSNRFSGVPDRFSGSGSGTDFTLKISRVEAEDVGVYYCSQNTHVPPTFGQGTKVEIERTVAAPSVFIFPPSDEQLKSGTASVVCLLNNFYPREAKVQWKVDNALQSGNSQESVTEQDSKDSTYSLSSTLTLSKADYEKHKVYACEVTHQGLSSPVTKSFNRGEC	43.9 % of HeCon Ab (=100)	103 % of HeCon Ab (=100)	–	–
